Assay results from the nanobody polyreactivity screen of Harvey et al. (2022).

Test: yeast display, Sf9 membrane polyspecificity reagent, FACS + sequencing; frameworks hold sequencing errors
Procedure, shortened: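 Nanobodies from a synthetic yeast display library (Saccharomyces cerevisiae BJ5465), induced 36–48 hours with galactose, were stained 1 hour at 4 °C with 10% biotinylated, detergent-solubilized Sf9 membrane reagent, enriched on streptavidin microbeads, then FACS-sorted. Anti-HA (expression) and streptavidin (reagent binding) fluorescence set low and high (top ~1%) gates. Polyreactivity labels come from the gate of origin. Genes were colony-PCR amplified, MiSeq 2 × 250 sequenced and filtered by CDR length.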

Which “polyreactivity (PSR sort gate)” value does the source give for “QVQLVESGGGLVQAGGSLRLSCAASGSTFLSYAMGWYRQAPGKERELVAAISCRGGSTYYADSVKGRFTISRDNAKNTVYLQMNSLKPEDTAVYYCARVYRPSADTYNYWGQGTKVTVSS” here?
The value was “high polyreactivity”.

Which “polyreactivity (PSR sort gate)” value does the source give for “QVQLVESGGGLVQAGGSLRLSCAASGGIFSTYTMGWSRQAPGKERELVAAITTGNSTYYADSVKGRFTISRDNAKNTVYLQMNSLKPEDTAVYYCAAFAASRDYYRRLIHDGYDYWGQGTQVTVSS” here?
The value was “low polyreactivity”.

Which “polyreactivity (PSR sort gate)” value does the source give for “QVLLVESGVGLVQAGGSLRLSCAASGRIFKLYAMGWYRQAPGKERELVAAITRRGGSTSYADSVKGRFTISRDNAKNTVYLQMNSLKPEDTAVYYCAASYTGRTVVQGYEYWGQGTQVTVSS” here?
Its value is “high polyreactivity”.

Which “polyreactivity (PSR sort gate)” value does the source give for “QVQLVESGGGLVQAGGSLRLSCAASGSIFRYYAMGWYIQAPGKERELVAGITGSTGRTYYADSVKGRFTISRDNAKNTVYLQMNSLKPEDTAVYYCAARSRYYEYDYWGQGTQVTVSS” here?
The value was “low polyreactivity”.

For “QVQLVESGGGLVQAGGSLRLSCAASGRIFSHYAMGWYRQAPGKERELVAAITSDGSTNYADSVKGRFTISRDNAKNTVYLQMNSLKPEDTAVYYCADYDYWGQGTQVTVSS”, which “polyreactivity (PSR sort gate)” value is on record?
The value was “low polyreactivity”.

Which “polyreactivity (PSR sort gate)” value does the source give for “QVQLVESGGGLDQPGGSLRLTWAASGSTFYLYTMGWYRQAHGKERELVARISSSGSTNYADSVKGRFTISRDNAKNAVYLQMNSLKPEDTAVYYCNKDWIYRGYDYWGQATQVTVSS” here?
The value was “high polyreactivity”.

With “QVQLVESGGALVQAGGSLRLSCAASGFTFRGYAMGWYRQAPGKEMELVAAIRGGGGRTYYADSVKGRFTISRDNAKNTVYLQMNSLKPEDTAGYYCAASYYDYSDVRSDYWGQGTQVTVSS” as the sequence, how does the “polyreactivity (PSR sort gate)” value read?
The value was “high polyreactivity”.

Which “polyreactivity (PSR sort gate)” value does the source give for “QVQLVESGGGLVQAGGSLRLSCAASGSIFYENAMGWYRKAPGKEREFVATIDLIGDRTYYADSVKGRFTISRDNAKNTVYLQMNSLKPEDTAVYYCAAERVGVFFRYDYWGQGTQVTVSS” here?
The value was “low polyreactivity”.

Which “polyreactivity (PSR sort gate)” value does the source give for “QVHLVESGGGLVQAGGSLRLSCAASGFTFSTYAMGVSRQAPGKEREWVAAISSGGTTNYADSEKGRFTISRDNAMNTVYLQMNCLKPEDTAVYYCATGYGRWTAYSTSYDYWGQGTQVTVSS” here?
The value was “low polyreactivity”.

For “QVQLVESGGGLVQAGGSLRLSCASSALIFYWYPIGWYRQAPGKESELVAAISYGGTTTSYADSVKGRFTISRDNATNTVYLQMNSLKPEDTAVYYCAADWLYGHFQITGYPVGVDYWGQGTQVTVSS”, which “polyreactivity (PSR sort gate)” value is on record?
Its value is “low polyreactivity”.

Which “polyreactivity (PSR sort gate)” value does the source give for “QVQLVESRGGLVQAGGSLRLSCAASGSICYRYAMGWYRQAPGKERELVAAISYSGGSTYYADSVKGRFTISRDNAKNTVYLQMKSLKPEDTAVYYCAKDYPPPISDYSRYYGYGYWGQGTQVTVSS” here?
The value was “low polyreactivity”.

With “QVQLVESGGGLVQAGGSLRLSCAASGRTFKTYAMGWYRQAPGKERELVAAISRDGRTYYADSVKGRFTISRDNAKNTVYLQMNSLKPEDTAVYYCNKRSYRKGDYWGQGTQVTVSS” as the sequence, how does the “polyreactivity (PSR sort gate)” value read?
Its value is “low polyreactivity”.

For “QVQLVESGGGLVQAGGSLRLSCAASGRIFRGNVMGWYRQAPGKERELVAVIRSSSGRTYYADSVKGRFTISRDNAKNTVYLQMNSLKPEDTAVYYCAAKSVWGQGTQVTVSS”, which “polyreactivity (PSR sort gate)” value is on record?
Its value is “high polyreactivity”.

Which “polyreactivity (PSR sort gate)” value does the source give for “QVQLVESGGGLVQAGGSLRLSCAASGFTFRVNAMGWYRQAPGKERELVAAISSGGRTYYADSVKGRFTISRDNAKNTVYLQMNSLKPEDTAVYYCNAGRVRHGNDYWGQGTQVTVSS” here?
The value was “high polyreactivity”.

Which “polyreactivity (PSR sort gate)” value does the source give for “QVQLVESGGGLVQAGGSLRLSCAASGRTFYDNTMGWYRQAPGKERELVAAITRNGGSTYYADSVKGRFTISRDNAKNTVYLQMNSLKPEDTAVYYCAVYVAYLYSYYYWGQGTQVSVSS” here?
The value was “low polyreactivity”.

With “QVQLVESGGGLVQAGGSLRLSCAASGSIFLVYAMGWYRQAPGKERELVAGITSDDSTNYADSVKGRFTISRDNAKNTVYLQINRLKPEDTAVYYCAKDSLGLYIVDLGYWGQGTQVTVSS” as the sequence, how does the “polyreactivity (PSR sort gate)” value read?
Its value is “low polyreactivity”.

Which “polyreactivity (PSR sort gate)” value does the source give for “QVQLVESGGGLVQAGGSLRLSCAASGRTFTHYAMGWYRQAPGKERELVAAISRSGGTTYYADSVKGRFTISRDNAKSTVYLQMNSLKPEDTAVYYCNAEVVDFELGVFEDYYWAYDYWGQGTQVTVSS” here?
The value was “high polyreactivity”.

With “QAQLQESGGGLVQAGGSLPRSCAPSGSIFRFSGMGWYRRAPGKERELVASIGFGSITYYEDRVKGRFTISRDNANNTVYLQMNSLKPEDTAVYYCAVQVQDDSWLDYWGQGTQVTVSC” as the sequence, how does the “polyreactivity (PSR sort gate)” value read?
Its value is “low polyreactivity”.

With “QVQLVESGGGLVQAGGSLRLSCAASGRIFYKYVMGWYRQAPGNERELVATITSGGSTYYADSVKGRFTISRDNAKNTVYLQMNSLKPEDTAVYYCAARKYYSRAYDYWGQGTQVTVSS” as the sequence, how does the “polyreactivity (PSR sort gate)” value read?
The value was “high polyreactivity”.

For “QVQLVESGGGLVQAGGSLSLSCAASGSTFIHNAMGWYRQAPGKERELVAAITSGGSTYYADSVKGRFTISRDNAKNTVYLQMNSLKPEDTAVYYCNRVSWRYSTMEYWGHGTQVTVSS”, which “polyreactivity (PSR sort gate)” value is on record?
Its value is “high polyreactivity”.

With “QVQLLETGGVLVQAGGSLRLSCAASGFIFGINAMGWYRQAPGKERELVATITSGGGTNYADSVKGRFTISRDNAKINVYLQMNSLKPEDSAVYYCNAQIAWATYEGDYWGQGTQVTVSS” as the sequence, how does the “polyreactivity (PSR sort gate)” value read?
Its value is “low polyreactivity”.

With “QVQLVESGGGLVQAGGSLRLSCAASGSTFGYNDMGRYRQAPGKERELVADSSYSGDSTYSADSVKGRFTISRDNAQNTVYLQMNSLKPEDTAVYYCKADRFADYDDWGQGTQVTVSS” as the sequence, how does the “polyreactivity (PSR sort gate)” value read?
Its value is “low polyreactivity”.

For “QVQLVESGGGLVQAGGSLRLSCAASGITFTSYVMGWYRQAPGKERELVAAISRSGGSSTYYADSVKGRFTISRDNAKNTVYLQMNSLKPEDTAVYYCAADSPYTGGANVYWGQGTQVTVSS”, which “polyreactivity (PSR sort gate)” value is on record?
The value was “high polyreactivity”.

Which “polyreactivity (PSR sort gate)” value does the source give for “QVQLVESGGGLVQAGGSLRLSCAASGFTFKSYAMGWYRPAPGKERELVAGITRTGVSTYYADSVKGRFTISRDNAKNTVYLLMNSLKPEDTAVYYCAAGIRHIYQSYAFYKFDYWGQGTQVTVSS” here?
Its value is “high polyreactivity”.

With “QVQLVESGGGLVQAGGSLRLSCAASGRIFKNYAMGWYRQAPGKERELVAAISWSGGRTYYADSVKGRFTISRDNAKNTVYLQMNSLKPEDTAVYYCAASIRTGYRYGYWGQGTQVTVSS” as the sequence, how does the “polyreactivity (PSR sort gate)” value read?
Its value is “high polyreactivity”.

With “QVQLVESGGGLVQAGGSLRLSCAASGRIFYRNAMGWYRPAPGKERELVASITSAGRTYYADSVKGRFTISRDNAKNTVYLQMNSLKPEDTAVYYCAVRVAVLLNLYGYWGQGTQVTVSS” as the sequence, how does the “polyreactivity (PSR sort gate)” value read?
Its value is “low polyreactivity”.

With “QVQLVESGGGLVQAGGSLRLSCAASGIIFVKYARGWSRQAPGKERELVAAITSGGSTYYADSVKGRFTISRDNAKNTVYLQTNSLKPEDTAVYYCNARRNQYLAQYDYWGQGTQVTVSS” as the sequence, how does the “polyreactivity (PSR sort gate)” value read?
The value was “high polyreactivity”.

For “QVQLVESGGGLVQAGGSLRLSCDASGSIFQNYAMGWYRQAPGKERELVAAINDDSTYYADSVKGRFTISRDNAKNTVYLQMNSLKPEDTAVYYCNAEDYVTLKIDLSWPYGYWGQGTQVTVSS”, which “polyreactivity (PSR sort gate)” value is on record?
The value was “low polyreactivity”.

Which “polyreactivity (PSR sort gate)” value does the source give for “QVQLVESGGGLVQAGGSLRLSCAASGSIFSSYAMGWYRQAPGKERELVAAITSGGSTYYADSVKGRFTISRDNAKNNVYLQMNSLKPEDTAVYYCAARQVRTSKLHMGYWGQGTQVTVSS” here?
Its value is “low polyreactivity”.

For “QVQLVESGGGLVQAGGSLRLSCAASGSIFGAYAMGWYRQAPGKESELVAVIRWGGGSTYADSVKGRFTISRDNAKNTVYLQMNSLKPEDTAVYYCNRDKSWADLYSHAYDYWGQGTQVTVSS”, which “polyreactivity (PSR sort gate)” value is on record?
Its value is “low polyreactivity”.

Which “polyreactivity (PSR sort gate)” value does the source give for “QVQLVESGGGLDQAGGSLRLSCAASGSTFYKYAMGWYRQAPGNERDLVAGISSSGGNTYYADSVKGRFTISRDNAKNTDYLQMNSLKPEDTAVYYCAARPRYLKEYDYWGQGTQVSVSS” here?
Its value is “high polyreactivity”.

With “QVQLVESVGGLVQAGGSLRLTCAASGSIFKYYDMGWYRQAPGTERELVAAISSNGGRTYYADSVKGRFTISRDNAKNTDYLQMNSLKPEDTAVYYCARRFRRTGESEYDYWGQGTQVNVSS” as the sequence, how does the “polyreactivity (PSR sort gate)” value read?
Its value is “high polyreactivity”.

Which “polyreactivity (PSR sort gate)” value does the source give for “QVQLQESGGGLVQAGGSLRLSCAASGTISYAPHMGWYRQAPGKERELVAGITIGGTTYYADIVIGRFTISRDNAKNTVFLQMNSLSPGDTAVYYCAAHSEQYTPFYYWGQGTQVTVSS” here?
Its value is “low polyreactivity”.

For “QVQLVESGGGLVQAGGSLRLSCAASGLIFYKYAMGWYRPAPGKERELVAAISSSGGSTYYADSVKGRFTISRDNAKNTVYLQMNSLKPEDTAVYYCAARTNRRGYNYWGQGTQVTVSS”, which “polyreactivity (PSR sort gate)” value is on record?
Its value is “high polyreactivity”.

For “QVQLVESGGGLVQAGGSLSLSCAASGFTITSYAMGWYRQAPGKERELVAAINSGGSTNYADSVKGRFTISRDNAKNTVYLQMNSLIPEDNAVYYCAAKRRSYRITYVGVGYKYGYWGLGTQVTVSS”, which “polyreactivity (PSR sort gate)” value is on record?
Its value is “high polyreactivity”.

Which “polyreactivity (PSR sort gate)” value does the source give for “QVQLVESGGGLVQAGGSLRLSCAASGFTFRVYAMGWYIQAPGKERELVAAITKRGGTTYYADSVKGRFTISRDNAKNTVYLQMNSLKPEDTAVYYCATENTPHYASHGYLGQGTQVTVSS” here?
Its value is “high polyreactivity”.

For “QVQLVESGGGLVQAGGSLRLSCAASGNIFEYYAMGWYRKAPGKERELVATITSGGSTNYADSVKGRFTISRDNAKNTVYLQMNSLKPEDTAVYYCNADIISVSVYYFIVEYDYWGQGTQVTVSS”, which “polyreactivity (PSR sort gate)” value is on record?
Its value is “low polyreactivity”.

With “QVQLVESGGGLVQAGGSLRLSCAASGFTFDGYAMGWYRQAPGKERELVAAISDSGDSTYYADSVKGRFTISRDNAKNTVYLQMNSLKPEDTAVYYCNADAYGTPEFTSYAVRYDYWGQGTQVTVSS” as the sequence, how does the “polyreactivity (PSR sort gate)” value read?
Its value is “low polyreactivity”.

With “QVQLVESGGGLVQAGGSLRLTSAASGSIFQNYAMGWYRQAPGKERQLVAVIDDSGGITYYADSVKGRFTISRDNAKNTVYLEMNSLKPEDTAVYYCARNVNAKKVLGGFDSWGQGTQVTVSS” as the sequence, how does the “polyreactivity (PSR sort gate)” value read?
Its value is “low polyreactivity”.

With “QVQLVESGGGLVHAGGSLRLSCAASGRTFSAYAMGWYRQAPGKERELVAAISRSGGRTYYADSVKGRFTISRDNAKNTVYLQMNSLKPEDTAVYYCNALNLPDNQGTYDYWGQGTQVTVSS” as the sequence, how does the “polyreactivity (PSR sort gate)” value read?
The value was “high polyreactivity”.

Which “polyreactivity (PSR sort gate)” value does the source give for “QVQLVESGGGLVQAGGSLRLSCAASGSIFTYYTMAWYRQAPGTERELVAAINGRGHSTYYADSVKGRFTISRDNAKNTVYLQMKSLKSEDTAVYYCKALGSLDGRYGYWGQGTQVTVSS” here?
Its value is “high polyreactivity”.
